Source: US20230340151A1 (Pfizer, published 2023)

Key:
Assay in all cases: flow cytometry on cells displaying the construct
[1] = biological target: T1, CID1875 (human-chicken GUCY2c chimera) (human/chicken)
T1 chain: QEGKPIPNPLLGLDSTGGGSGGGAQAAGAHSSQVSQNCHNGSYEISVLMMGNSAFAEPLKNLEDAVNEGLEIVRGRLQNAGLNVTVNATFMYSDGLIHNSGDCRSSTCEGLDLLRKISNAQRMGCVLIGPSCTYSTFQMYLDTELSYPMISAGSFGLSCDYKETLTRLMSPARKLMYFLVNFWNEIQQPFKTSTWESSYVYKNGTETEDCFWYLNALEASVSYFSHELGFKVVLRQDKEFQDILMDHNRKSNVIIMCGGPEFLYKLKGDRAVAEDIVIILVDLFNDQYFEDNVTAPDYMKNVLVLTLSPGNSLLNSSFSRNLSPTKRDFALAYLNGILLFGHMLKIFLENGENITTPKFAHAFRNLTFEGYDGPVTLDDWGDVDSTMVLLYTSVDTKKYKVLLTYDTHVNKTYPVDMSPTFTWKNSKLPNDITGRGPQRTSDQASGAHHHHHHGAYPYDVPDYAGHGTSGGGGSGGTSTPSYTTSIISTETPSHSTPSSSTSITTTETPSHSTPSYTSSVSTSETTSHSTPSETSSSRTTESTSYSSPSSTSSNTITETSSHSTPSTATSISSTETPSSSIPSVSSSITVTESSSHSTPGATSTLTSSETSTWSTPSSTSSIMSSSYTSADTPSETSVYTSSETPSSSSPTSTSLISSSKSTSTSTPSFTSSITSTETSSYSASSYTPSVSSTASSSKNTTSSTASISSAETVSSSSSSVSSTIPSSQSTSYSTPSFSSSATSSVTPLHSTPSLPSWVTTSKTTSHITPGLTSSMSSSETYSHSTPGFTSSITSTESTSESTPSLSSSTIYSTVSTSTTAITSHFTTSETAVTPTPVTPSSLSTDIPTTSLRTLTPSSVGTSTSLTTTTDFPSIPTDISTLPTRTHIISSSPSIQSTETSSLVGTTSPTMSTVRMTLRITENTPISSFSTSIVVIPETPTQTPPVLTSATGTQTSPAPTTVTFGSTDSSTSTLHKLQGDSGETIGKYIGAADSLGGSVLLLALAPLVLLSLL
Source text: (§1) Cells were then washed three times with PBS+0.5% BSA buffer. […] Cells were washed three times with PBS+0.5% BSA buffer and then analyzed on a flow cytometer.
(§2) MFI (median fluorescence intensity) of anti-GUCY2c antibody binding to the cells was normalized to expression on cell surface measured by MFI of anti-tag antibodies. All the cells expressed V5 and HA on the cell surface for expression normalization.

[2] = biological target: CID1946 (human GUCY2c point mutant) (human)
Source text: as §1, §2

[3] = biological target: CID1942 (human GUCY2c point mutant) (human)
Source text: as §1, §2

[4] = biological target: T2, CID1878 (human-chicken GUCY2c chimera) (human/chicken)
T2 chain: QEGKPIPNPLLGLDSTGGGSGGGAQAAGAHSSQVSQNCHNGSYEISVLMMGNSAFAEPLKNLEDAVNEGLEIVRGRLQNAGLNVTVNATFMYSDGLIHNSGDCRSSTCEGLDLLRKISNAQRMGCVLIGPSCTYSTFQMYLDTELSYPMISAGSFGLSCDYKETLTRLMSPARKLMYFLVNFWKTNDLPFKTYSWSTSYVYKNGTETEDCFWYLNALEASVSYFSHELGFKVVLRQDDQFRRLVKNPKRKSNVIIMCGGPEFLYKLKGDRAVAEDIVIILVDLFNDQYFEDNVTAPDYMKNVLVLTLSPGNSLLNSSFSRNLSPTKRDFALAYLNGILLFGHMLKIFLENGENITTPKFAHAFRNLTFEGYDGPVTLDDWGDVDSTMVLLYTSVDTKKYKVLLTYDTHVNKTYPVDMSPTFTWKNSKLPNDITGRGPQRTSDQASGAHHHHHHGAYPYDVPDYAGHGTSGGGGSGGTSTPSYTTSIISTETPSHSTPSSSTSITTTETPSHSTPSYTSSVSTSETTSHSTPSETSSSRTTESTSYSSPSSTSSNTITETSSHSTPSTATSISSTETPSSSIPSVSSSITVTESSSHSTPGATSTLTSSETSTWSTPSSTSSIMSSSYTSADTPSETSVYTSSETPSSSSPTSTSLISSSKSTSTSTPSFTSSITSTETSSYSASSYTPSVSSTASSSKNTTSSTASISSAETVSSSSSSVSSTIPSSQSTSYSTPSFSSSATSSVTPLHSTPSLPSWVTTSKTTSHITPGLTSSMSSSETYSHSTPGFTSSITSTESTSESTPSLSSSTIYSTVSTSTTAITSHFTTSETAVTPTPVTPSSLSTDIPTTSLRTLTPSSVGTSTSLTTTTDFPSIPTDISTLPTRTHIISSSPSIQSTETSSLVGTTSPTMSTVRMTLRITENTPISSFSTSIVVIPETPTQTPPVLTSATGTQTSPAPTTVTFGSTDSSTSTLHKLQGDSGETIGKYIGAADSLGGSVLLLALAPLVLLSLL
Source text: as §1, §2

[5] = biological target: CID1941 (human GUCY2c point mutant) (human)
Source text: as §1, §2

Measured: binding result

B1: GUCY2C-1608 (bispecific antibody)
chain 1: DIQLTQSPSSLSASVGDRVTITCRASESVDYYGSSLLQWYQQKPGKAPKLLIYAASKLASGVPSRFSGSGSGTDFTLTISSLQPEDFATYYCQQTRKAYTFGQGTKLEIKGGGSGGGGEVQLVESGGGLVQPGGSLRLSCAASGFTFSDYYMTWVRQAPGKGLEWVAFIRNQARGYTSDHNPSVKGRFTISRDNAKNSLYLQMNSLRAEDTAVYYCARDRPSYYVLDYWGQGTTVTVSSGCPPCPAPEAAGAPSVFLFPPKPKDTLMISRTPEVTCVVVDVSHEDPEVKFNWYVDGVEVHNAKTKPREEQYNSTYRVVSVLTVLHQDWLNGKEYKCKVSNKALPAPIEKTISKAKGQPREPQVCTLPPSREEMTKNQVSLWCLVKGFYPSDIAVEWESNGQPENNYKTTPPVLDSDGSFFLYSKLTVDKSRWQQGNVFSCSVMHEALHNHYTQKSLSLSPG
chain 2: DIQMTQSPSSLSASVGDRVTITCTSSQSLFNVRSQKNYLAWYQQKPGKAPKLLIYWASTRESGVPSRFSGSGSGTDFTLTISSLQPEDFATYYCKQSYDLFTFGGGTKVEIKGGGGSGGGGEVQLVESGGGLVQPGGSLRLSCAASGFTFSSYWMHWVRQAPGKGLEWIGEIKPSNELTNVHEKFKDRFTISVDKAKNSAYLQMNSLRAEDTAVYYCTRTITTTEGYWFFDVWGQGTLVTVSSGCPPCPAPEAAGAPSVFLFPPKPKDTLMISRTPEVTCVVVDVSHEDPEVKFNWYVDGVEVHNAKTKPREEQYNSTYRVVSVLTVLHQDWLNGKEYKCKVSNKALPAPIEKTISKAKGQPREPQVYTLPPCREEMTKNQVSLSCAVKGFYPSDIAVEWESNGQPENNYKTTPPVLDSDGSFFLVSKLTVDKSRWQQGNVFSCSVMHEALHNHYTQKSLSLSPG
notes: also called GUCY2c CD3 bispecific
binds: all assays above
